Assay [1] addresses S100A11 (Homo sapiens) (UniProt P31949). The conditions noted are these: cited from earlier work.
Assay [2] addresses T1, human annexin A1 (hanA1) tagged emerald green fluorescent protein (EmGFP) (human, UniProt P04083 3-346).
T1 construct: human annexin A1, amplified from a human brain cDNA library; EmGFP (reporter, detected by fluorescence) follows after the BamH I / Bgl II junction; also called hanA1-EmGFP; HanA1-EmGFP; source: E. coli BL21(DE3); in crude extract (clear lysate), or separated by CaCl2 precipitation and EDTA-Na2 resolubilisation; not shown: EmGFP, C-terminal, kept
T1 sequence (looked up): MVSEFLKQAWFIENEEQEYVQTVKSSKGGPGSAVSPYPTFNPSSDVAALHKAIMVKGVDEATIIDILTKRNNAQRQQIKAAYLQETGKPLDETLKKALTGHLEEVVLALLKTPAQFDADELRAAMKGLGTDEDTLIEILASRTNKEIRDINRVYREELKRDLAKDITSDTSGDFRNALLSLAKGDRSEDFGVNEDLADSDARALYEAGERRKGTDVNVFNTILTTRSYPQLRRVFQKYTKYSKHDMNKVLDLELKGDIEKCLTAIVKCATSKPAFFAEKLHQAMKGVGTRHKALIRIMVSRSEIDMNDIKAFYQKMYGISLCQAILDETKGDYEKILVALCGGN
Kind of assay: pull-down; MBP-hS100A11 immobilised on amylose resin; hanA1-EmGFP in crude extract (clear lysate) in buffer B (20 mM Tris-HCl pH 8.0, 10% glycerol, 1 mM CaCl2), room temperature, 2 h; washed with buffer B containing 50 mM NaCl; eluted with buffer C (buffer A with 5 mM EDTA-Na2); SDS-PAGE. The conditions noted are these: one partner purified.

Regarding “annexin I N-terminal peptide (from UniProt P04083)”, the Kd in assay [1] was 5 µM.

B1: MBP-hS100A11 (human S100A11 fused to maltose binding protein) (natural protein, UniProt P31949 2-105, looked up)
chain: AKISSPTETERCIESLIAVFQKYAGKDGYNYTLSKTEFLSFMNTELAAFTKNQKDPGVLDRMMKKLDTNSDGQLDFSEFLNLIGGLAMACHDSFLKAVPSQKRT
notes: human S100A11, amplified from a human cDNA library; also called MBP-S100A11; immobilized S100A11; source: E. coli, soluble; immobilised on amylose resin and washed; not shown: MBP, N-terminal, kept
As to B1, the binding result in assay [2] is “binds”.

Source of the values: publication PMC9817314, “Detection of human annexin A1 as the novel N-terminal tag for separation and purification handle” (Microbial Cell Factories, 2023).
